For this assay, the target named is His/HA-SUMO-2 (stably expressed in HepaRG cells) (UniProt P61956). The assay is described as follows: Ni-NTA purification of covalent His/HA-SUMO-2 conjugates from infected HepaRG cells, anti-E2A immunoblot, densitometry normalised to E2A levels.

Substance “E2A K94/132/202R, untagged (pCMX3b-E2AK94/132/202R / pE2A-SCM, or expressed from HAdV E2A SCM mutant virus) (from UniProt P03265 1-529)” gave a reduction of E2A SUMOylation against HAdV wt infection of 70%.
